The results in this text go back to US20230293638A1 (Eli Lilly, published 2023).

Residue numbers refer to the chain shown, from its start. Numbered stars: 1 amine (or outer) side, 2 acyl side, 3 side chain; on linkers, the order of the positions; unused ones are H or OH. Square brackets hold non-standard residues; d marks the D form. Side chains are listed from the residue outwards. Ends that are not written are not given here. * marks the point of attachment. C20 diacid = O=C(O)CCCCCCCCCCCCCCCCCCC(=O)*; γGlu = O=C(O)[C@H](CCC(=O)[*:2])N[*:1]; AEEA = NCCOCCOCC(=O)O; Aib = CC(C)(N)C(=O)O

The test addresses human GLP-1 receptor (human, UniProt P43220 24-463). In words: cell-based or functional assay.

B1: Peptide 233 (peptide)
peptide: YXEGTXTSDXSIXLDXKAQXEFIXYLIEGGPSSGAPPPS
modifications: not fully specified; Aib2; αMeF(2F)6; 4Pal10; αMeL13; Dab16; K17((2-[2-(2-Amino-ethoxy)-ethoxy]-acetyl)2-(γGlu)-CO-(CH2)16-CO2H); Aib20; D-Glu24; C-terminal NH2
Turning to B1, the “hGLPIR cAMP EC50 ratio” value was determined as 0.535.

B2: Peptide 218 (peptide)
peptide: B1 peptide with X10Y
modifications: Aib2; αMeF(2F)6; αMeL13; Dap16; K17((2-[2-(2-Amino-ethoxy)-ethoxy]-acetyl)2-(γGlu)-CO-(CH2)18-CO2H); Aib20; D-Glu24; C-terminal NH2
Turning to B2, the “hGLPIR cAMP EC50 ratio” value came out at 1.02.

B3: Peptide 239 (peptide)
peptide: B1 peptide with E21T, Y25X
modifications: not fully specified; Aib2; αMeF(2F)6; 4Pal10; αMeL13; Orn16; K17((2-[2-(2-Amino-ethoxy)-ethoxy]-acetyl)2-(γGlu)-CO-(CH2)16-CO2H); Aib20; D-Glu24; αMeY25; C-terminal NH2
Take B3: the “hGLPIR cAMP EC50 ratio” value was found to be 0.987.

B4: Peptide 251 (peptide)
peptide: B1 peptide with E21A, Y25X
modifications: Aib2; αMeF(2F)6; 4Pal10; αMeL13; Orn16; K17((2-[2-(2-Amino-ethoxy)-ethoxy]-acetyl)2-(εK)-CO-(CH2)18-CO2H); Aib20; D-Glu24; αMeY25; C-terminal NH2
Turning to B4, the “hGLPIR cAMP EC50 ratio” value came out at 1.37.

B5: Peptide 216 (peptide)
peptide: B1 peptide with X10Y, X16E
modifications: Aib2; αMeF(2F)6; αMeL13; K17((2-[2-(2-Amino-ethoxy)-ethoxy]-acetyl)2-(εK)-CO-(CH2)18-CO2H); Aib20; D-Glu24; C-terminal NH2
As to B5, the “hGLPIR cAMP EC50 ratio” value was determined as 1.31.

B6: Peptide 217 (peptide)
peptide: B1 peptide with X10Y
modifications: Aib2; αMeF(2F)6; αMeL13; Dab16; K17((2-[2-(2-Amino-ethoxy)-ethoxy]-acetyl)2-(γGlu)-CO-(CH2)18-CO2H); Aib20; D-Glu24; C-terminal NH2
For B6, the “hGLPIR cAMP EC50 ratio” value is 1.14.

B7: Peptide 215 (peptide)
peptide: B1 peptide with X10Y, X16E
modifications: Aib2; αMeF(2F)6; αMeL13; K17((2-[2-(2-Amino-ethoxy)-ethoxy]-acetyl)2-CO-(CH2)18-CO2H); Aib20; D-Glu24; C-terminal NH2
For B7, the “hGLPIR cAMP EC50 ratio” value was 0.813.

B8: Peptide 224 (peptide)
peptide: B1 peptide with X10Y, X16E
modifications: Aib2; αMeF(2F)6; Aib13; K17((2-[2-(2-Amino-ethoxy)-ethoxy]-acetyl)2-(γGlu)-CO-(CH2)18-CO2H); Aib20; D-Glu24; C-terminal NH2
On to B8, for which the “hGLPIR cAMP EC50 ratio” value turned out to be 1.06.

B9: Peptide 246 (peptide)
peptide: B1 peptide with X10A, E21A, Y25X
modifications: not fully specified; Aib2; αMeF(2F)6; αMeL13; Orn16; K17((2-[2-(2-Amino-ethoxy)-ethoxy]-acetyl)2-(γGlu)-CO-(CH2)16-CO2H); Aib20; D-Glu24; αMeY25; C-terminal NH2
On to B9, for which the “hGLPIR cAMP EC50 ratio” value worked out at 2.56.

B10: Peptide 247 (peptide)
peptide: B1 peptide with X10Y
modifications: not fully specified; Aib2; αMeF(2F)6; Aib13; Orn16; K17((2-[2-(2-Amino-ethoxy)-ethoxy]-acetyl)2-(γGlu)-CO-(CH2)16-CO2H); Aib20; D-Glu24; C-terminal NH2
Turning to B10, the “hGLPIR cAMP EC50 ratio” value was 0.614.

B11: Peptide 26 (peptide)
peptide: Y[Aib]EGTFTSDYSIK([AEEA-AEEA-γGlu-C20 diacid])LDKIAQ[Aib]AFIEYLIEGGPSSGAPPPS-NH2
modifications: N-terminus assumed
SMILES: CC[C@H](C)[C@H](NC(=O)[C@H](CCCCN)NC(=O)[C@H](CC(=O)O)NC(=O)[C@H](CC(C)C)NC(=O)[C@H](CCCCNC(=O)COCCOCCNC(=O)COCCOCCNC(=O)CC[C@H](NC(=O)CCCCCCCCCCCCCCCCCCC(=O)O)C(=O)O)NC(=O)[C@@H](NC(=O)[C@H](CO)NC(=O)[C@H](Cc1ccc(O)cc1)NC(=O)[C@H](CC(=O)O)NC(=O)[C@H](CO)NC(=O)[C@@H](NC(=O)[C@H](Cc1ccccc1)NC(=O)[C@@H](NC(=O)CNC(=O)[C@H](CCC(=O)O)NC(=O)C(C)(C)NC(=O)[C@@H](N)Cc1ccc(O)cc1)[C@@H](C)O)[C@@H](C)O)[C@@H](C)CC)C(=O)N[C@@H](C)C(=O)N[C@@H](CCC(N)=O)C(=O)NC(C)(C)C(=O)N[C@@H](C)C(=O)N[C@@H](Cc1ccccc1)C(=O)N[C@H](C(=O)N[C@@H](CCC(=O)O)C(=O)N[C@@H](Cc1ccc(O)cc1)C(=O)N[C@@H](CC(C)C)C(=O)N[C@H](C(=O)N[C@@H](CCC(=O)O)C(=O)NCC(=O)NCC(=O)N1CCC[C@H]1C(=O)N[C@@H](CO)C(=O)N[C@@H](CO)C(=O)NCC(=O)N[C@@H](C)C(=O)N1CCC[C@H]1C(=O)N1CCC[C@H]1C(=O)N1CCC[C@H]1C(=O)N[C@@H](CO)C(N)=O)[C@@H](C)CC)[C@@H](C)CC
With B11, the “hGLPIR cAMP EC50 ratio” value was determined as 0.238.

B12: Peptide 29 (peptide)
peptide: Y[Aib]EGTFTSDYSILLDK([AEEA-AEEA-γGlu-C20 diacid])IAQ[Aib]AFIEYLIEGGPSSGAPPPS-NH2
modifications: N-terminus assumed
SMILES: CC[C@H](C)[C@H](NC(=O)[C@H](CCCCNC(=O)COCCOCCNC(=O)COCCOCCNC(=O)CC[C@H](NC(=O)CCCCCCCCCCCCCCCCCCC(=O)O)C(=O)O)NC(=O)[C@H](CC(=O)O)NC(=O)[C@H](CC(C)C)NC(=O)[C@H](CC(C)C)NC(=O)[C@@H](NC(=O)[C@H](CO)NC(=O)[C@H](Cc1ccc(O)cc1)NC(=O)[C@H](CC(=O)O)NC(=O)[C@H](CO)NC(=O)[C@@H](NC(=O)[C@H](Cc1ccccc1)NC(=O)[C@@H](NC(=O)CNC(=O)[C@H](CCC(=O)O)NC(=O)C(C)(C)NC(=O)[C@@H](N)Cc1ccc(O)cc1)[C@@H](C)O)[C@@H](C)O)[C@@H](C)CC)C(=O)N[C@@H](C)C(=O)N[C@@H](CCC(N)=O)C(=O)NC(C)(C)C(=O)N[C@@H](C)C(=O)N[C@@H](Cc1ccccc1)C(=O)N[C@H](C(=O)N[C@@H](CCC(=O)O)C(=O)N[C@@H](Cc1ccc(O)cc1)C(=O)N[C@@H](CC(C)C)C(=O)N[C@H](C(=O)N[C@@H](CCC(=O)O)C(=O)NCC(=O)NCC(=O)N1CCC[C@H]1C(=O)N[C@@H](CO)C(=O)N[C@@H](CO)C(=O)NCC(=O)N[C@@H](C)C(=O)N1CCC[C@H]1C(=O)N1CCC[C@H]1C(=O)N1CCC[C@H]1C(=O)N[C@@H](CO)C(N)=O)[C@@H](C)CC)[C@@H](C)CC
As to B12, the “hGLPIR cAMP EC50 ratio” value worked out at 0.0671.

B13: Peptide 219 (peptide)
peptide: YXEGTXTSDYSIXLDEKAQXEFIXYLIEGGPSSG
modifications: Aib2; αMeF(2F)6; αMeL13; K17((2-[2-(2-Amino-ethoxy)-ethoxy]-acetyl)2-(γGlu)-CO-(CH2)16-CO2H); Aib20; D-Glu24; C-terminal NH2
B13: the “hGLPIR cAMP EC50 ratio” value was found to be 1.03.

B14: Peptide 228 (peptide)
peptide: B13 peptide with E16K
modifications: Aib2; αMeF6; αMeL13; K17((2-[2-(2-Amino-ethoxy)-ethoxy]-acetyl)2-(γGlu)-CO-(CH2)18-CO2H); Aib20; D-Glu24; C-terminal NH2
For the molecule B14, the “hGLPIR cAMP EC50 ratio” value is 1.1.

B15: Peptide 264 (peptide)
peptide: B13 peptide with Y10X, E16X, Y25X
modifications: Aib2; αMeF(2F)6; 4Pal10; αMeL13; Orn16; K17((2-[2-(2-Amino-ethoxy)-ethoxy]-acetyl)2-(γGlu)-CO-(CH2)16-CO2H); Aib20; D-Glu24; αMeY25; C-terminal NH2
B15: the “hGLPIR cAMP EC50 ratio” value came out at 3.19.

B16: Peptide 31 (peptide)
peptide: Y[Aib]EGTFTSDYSILLDKIAK([AEEA-AEEA-γGlu-C20 diacid])[Aib]AFIEYLIEGGPSSGAPPPS-NH2
modifications: N-terminus assumed
SMILES: CC[C@H](C)[C@H](NC(=O)[C@H](CCCCN)NC(=O)[C@H](CC(=O)O)NC(=O)[C@H](CC(C)C)NC(=O)[C@H](CC(C)C)NC(=O)[C@@H](NC(=O)[C@H](CO)NC(=O)[C@H](Cc1ccc(O)cc1)NC(=O)[C@H](CC(=O)O)NC(=O)[C@H](CO)NC(=O)[C@@H](NC(=O)[C@H](Cc1ccccc1)NC(=O)[C@@H](NC(=O)CNC(=O)[C@H](CCC(=O)O)NC(=O)C(C)(C)NC(=O)[C@@H](N)Cc1ccc(O)cc1)[C@@H](C)O)[C@@H](C)O)[C@@H](C)CC)C(=O)N[C@@H](C)C(=O)N[C@@H](CCCCNC(=O)COCCOCCNC(=O)COCCOCCNC(=O)CC[C@H](NC(=O)CCCCCCCCCCCCCCCCCCC(=O)O)C(=O)O)C(=O)NC(C)(C)C(=O)N[C@@H](C)C(=O)N[C@@H](Cc1ccccc1)C(=O)N[C@H](C(=O)N[C@@H](CCC(=O)O)C(=O)N[C@@H](Cc1ccc(O)cc1)C(=O)N[C@@H](CC(C)C)C(=O)N[C@H](C(=O)N[C@@H](CCC(=O)O)C(=O)NCC(=O)NCC(=O)N1CCC[C@H]1C(=O)N[C@@H](CO)C(=O)N[C@@H](CO)C(=O)NCC(=O)N[C@@H](C)C(=O)N1CCC[C@H]1C(=O)N1CCC[C@H]1C(=O)N1CCC[C@H]1C(=O)N[C@@H](CO)C(N)=O)[C@@H](C)CC)[C@@H](C)CC
Regarding B16, the “hGLPIR cAMP EC50 ratio” value came to 0.0708.

B17: Peptide 220 (peptide)
peptide: YXEGTXTSDYSIXLDEKAQXEFIXYLIEGG
modifications: Aib2; αMeF(2F)6; αMeL13; K17((2-[2-(2-Amino-ethoxy)-ethoxy]-acetyl)2-(γGlu)-CO-(CH2)16-CO2H); Aib20; D-Glu24; C-terminal NH2
With B17, the “hGLPIR cAMP EC50 ratio” value is 1.36.
